Experimental data reported in article PMC9666519.

Assays:
[1] = molecular target: 20S proteasome core particle of Vairimorpha necatrix (Vairimorpha necatrix (endogenous in spores)); assay: cryo-EM structure; proteasomes from dormant V. necatrix spores, bead-beaten without ATP, lysate on Superose 6 Increase in 50 mM Tris pH 7.4, 300 mM NaCl, 5 mM DTT; 2.8 Å map of the 20S CP, C2 symmetry
[2] = molecular target: 20S proteasome core particle of Vairimorpha necatrix (Vairimorpha necatrix (endogenous in spores)); assay: cryo-EM structure; 26S proteasomes from germinated sporoplasms, purified with 20 mM ATP; 8.3 Å map without symmetry, AlphaFold models of the RP subunits docked as rigid bodies

stoichiometry N (PI31L per 20S core particle) [1] | percent of proteasome particles capped by RP [2] [%] | percent of proteasome particles capped by RP on both ends [2] [%] | Substance
2 |  |  | PI31-like protein (PI31L) of Vairimorpha necatrix (natural protein)
 | 12 | 1.5 | 19S regulatory particle of the Vairimorpha necatrix proteasome (complex)
